From patent US11198713B2, “Agents modulating beta-catenin functions and methods thereof” (FOG PHARMACEUTICALS, INC., priority 2017, dated 2021)
Numbered stars: 1 amine (or outer) side, 2 acyl side, 3 side chain; on linkers, the order of the positions; unused ones are H or OH. Bridge positions count the residues as written; N and C are the ends. Square brackets hold non-standard residues; d marks the D form. Primed or numbered codes have the meaning given here. MB(4) = Monomer B (PyrS), N-Alloc pyrrolidine stapling residue, (S)-3-amino-1-(allyloxycarbonyl)pyrrolidine-3-carboxylic acid, C=CCOC(=O)N1CC[C@@](N[*:1])(C(=O)[*:2])C1; R7″ = stapling residue, (R)-2-(6-heptenyl)alanine (drawn only), C=CCCCCC[C@@](C)(N[*:1])C(=O)[*:2]; MB(11) = Monomer B (PyrS), pyrrolidine-bearing Alloc-olefin stapling residue; ME = Monomer E = RgN, acyclic alkyl-N(Alloc) olefin stapling residue; R7 = (R)-2-(6-heptenyl)alanine, C=CCCCCC[C@@](C)(N[*:1])C(=O)[*:2]; R6 = (R)-2-(5-hexenyl)alanine, C=CCCCC[C@@](C)(N[*:1])C(=O)[*:2]; MB(14) = Monomer B = PyrS, Alloc-pyrrolidine stapling residue; MF = Monomer F (SdN), acyclic alkyl-N(Alloc) stapling residue; 1Nal = N[C@@H](Cc1cccc2ccccc12)C(=O)O; R8 = C=CCCCCCC[C@@](C)(N)C(=O)O; S8 = C=CCCCCCC[C@](C)(N)C(=O)O; S5 = C=CCCC[C@](C)(N)C(=O)O

T1: full-length beta-catenin (UniProt P35222 2-781, limits assumed)
T1 construct: mature; also called full-length ß-Catenin; β-catenin
T1 sequence (looked up): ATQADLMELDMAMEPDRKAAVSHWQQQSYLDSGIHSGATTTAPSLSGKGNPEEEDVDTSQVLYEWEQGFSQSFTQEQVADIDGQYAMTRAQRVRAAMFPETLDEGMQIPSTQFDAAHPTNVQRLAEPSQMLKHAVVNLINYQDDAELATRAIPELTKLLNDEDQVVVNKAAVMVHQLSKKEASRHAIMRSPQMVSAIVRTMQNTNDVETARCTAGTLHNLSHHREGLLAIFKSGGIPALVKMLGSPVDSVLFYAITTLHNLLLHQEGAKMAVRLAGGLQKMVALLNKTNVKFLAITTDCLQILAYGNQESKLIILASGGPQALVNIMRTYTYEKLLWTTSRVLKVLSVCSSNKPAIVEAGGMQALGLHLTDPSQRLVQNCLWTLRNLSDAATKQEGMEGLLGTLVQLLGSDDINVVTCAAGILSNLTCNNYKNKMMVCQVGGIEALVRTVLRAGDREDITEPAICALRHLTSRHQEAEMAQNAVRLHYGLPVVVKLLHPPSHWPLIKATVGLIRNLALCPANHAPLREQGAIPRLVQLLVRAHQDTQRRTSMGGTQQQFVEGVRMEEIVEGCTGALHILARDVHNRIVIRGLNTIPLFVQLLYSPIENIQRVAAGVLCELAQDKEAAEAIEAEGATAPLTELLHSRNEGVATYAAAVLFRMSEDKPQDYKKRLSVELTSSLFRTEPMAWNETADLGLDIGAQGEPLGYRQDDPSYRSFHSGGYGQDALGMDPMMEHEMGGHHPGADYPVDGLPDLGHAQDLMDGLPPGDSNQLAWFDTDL


Molecular target: T1, full-length beta-catenin
Experiment: competition FP, grade of FP EC50 (++: 100-500 nM)
Protocol: In some embodiments, a competition fluorescence polarization assay is used to assess binding of provided compounds to beta-catenin. In an exemplary procedure, solutions of provided compounds, e.g., provided stapled peptides, were prepared in a buffer (e.g., 50 mM Tris pH 8.0, 250 mM NaCl, 2% glycerol, 0.5 mM EDTA, 0.02% w/v sodium azide) using a 3-fold serial dilution from 5 µM. Probe solution (15 nM full-length ß-Catenin, 20 nM FITC labeled peptide in buffer) was prepared and incubated for a period of time, e.g., 5 minutes, and the a volume, e.g., 40 µL per well plated in suitable plate, e.g., a black polystyrene 384-well plate (Corning). Equal volume of the serial diluted peptide was added to the plate and incubated protected from light for 15 minutes prior to read. Reads were performed on a Spectramax M5 (Molecular Devices) in duplicate. Suitable probe was FITC-PEG1-PQ-S5-ILD-S5-HVRRVWR (SEQ ID NO: 1) (hydrocarbon staple formed by two S5 via olefin metathesis) and/or FITC-bA-PQ-S5-ILD-S5-HVRRVWR (SEQ ID NO: 3) (hydrocarbon staple formed by two S5 via olefin metathesis). […] Another peptide, FPO217c (Ac-AR_8ILDAHIM$B5$RVW (SEQ ID NO: 280), with N-terminal proline removed and valine replaced with isoleucine compared to FP0025c) was prepared.

FP EC50	Binder
100 to 500 nM	AXILDAHIXRVW (not fully specified; Ac-A-MA-I-L-D-A-H-I-MI-R-V-W-NH2; carbamate staple MA/MI) [FP0625c]
100 to 500 nM	AXILDAHIXRVW (not fully specified; Ac-A-MG-I-L-D-A-H-I-MF-R-V-W-NH2; carbamate staple MG/MF) [FP0594c]
100 to 500 nM	Ac-A[MI]ILDAHI[S5]RVW-NH2 (staple 2-9; also: carbamate staple, isomer 1, olefin geometry not assigned) [FP0506c Isomer 1]
100 to 500 nM	Ac-A[R7″]ILDAHI[MA]RVW-NH2 (staple 2-9; not fully specified; printed as Ac-A-R7-I-L-D-A-H-I-MA-R-V-W-NH2) [FP0516a Isomer 1]
100 to 500 nM	Ac-A[R8]ILDAHI[MB(4)]K(Me)VW-NH2 (staple 2-9) [FP0636c]
100 to 500 nM	Ac-A[R8]ILDAHI[MB(4)]KVW-NH2 (staple 2-9) [FP0635c]
100 to 500 nM	Ac-A[R7″]ILDAHI[MA]RVW-NH2 (staple 2-9) [FP0516c]

Second part, the binder before the results:

Binder	FP EC50
AXILDAHIXRVW (not fully specified; Ac-A-R5-I-L-D-A-H-I-MF-R-V-W-NH2; carbamate staple R5/MF) [FP0501c]	100 to 500 nM
Ac-A[R7]ILDAHI[MF]RVW-NH2 (staple 2-9; also: carbamate staple, olefin geometry not assigned) [FP0503c]	100 to 500 nM
AXILDAHIXRVW (not fully specified; Ac-A-R7-I-L-D-A-H-I-MF-R-V-W-NH2; amino staple R7/MF) [FP0503a]	100 to 500 nM
PAXILDAHVXRVW (not fully specified; Ac-P-A-R5-I-L-D-A-H-V-S8-R-V-W-NH2; hydrocarbon staple R5/S8) [FP0212s Isomer 2]	100 to 500 nM
Ac-A[R6]ILDAHI[MF]RVW-NH2 (staple 2-9; also: carbamate staple, isomer 2, olefin geometry not assigned, also called FP0502c (Peak 2)) [FP0502c Isomer 2]	100 to 500 nM
AXILDAHIXRVW (not fully specified; Ac-A-ME-I-L-D-A-H-I-S8-R-V-W-NH2; carbamate staple ME/S8) [FP0335c Isomer 1]	100 to 500 nM
Ac-A[ME]ILDAHI[S8]RVW-NH2 (staple 2-9) [FP0335a]	100 to 500 nM
Ac-A[R8]ILNAHI[MB(14)]RVW-NH2 (staple 2-9) [FP0218c]	100 to 500 nM
Ac-A[R8]ILTAHI[MB(14)]RVW-NH2 (staple 2-9) [FP0219c]	100 to 500 nM
AXILDAHIXAVW (not fully specified; Ac-A-R8-I-L-D-A-H-I-MB-A-V-W-NH2; carbamate staple R8/MB) [FP0410c]	100 to 500 nM
Ac-A[R8]ILDAHI[MB(11)][1Nal]VW-NH2 (staple 2-9; also: carbamate staple R8/MB (-N(R')-C(O)-O-), isomer not specified) [FP0365c]	100 to 500 nM
AXIADAHIXRVW (not fully specified; Ac-A-R8-I-A-D-A-H-I-MB-R-V-W-NH2; carbamate staple R8/MB) [FP0406c]	100 to 500 nM
Ac-A[R7]ILDAHI[MD]RVW-NH2 (staple 2-9; not fully specified; printed as Ac-A-R7-I-L-D-A-H-I-MD-R-V-W-NH2; also: carbamate staple R7/MD (-N(R')-C(O)-O-)) [FP0495c]	100 to 500 nM
